Source: PMC10866945 (2024)

What was measured:
Spike protein RBD = Spike protein RBD (Severe acute respiratory syndrome …, UniProt P0DTC2); assay: ELISA
Spike protein NTD = Spike protein NTD (Severe acute respiratory syndrome …, UniProt P0DTC2); assay: ELISA

B1: Asialoglycoprotein receptor 1 (protein)
chain: MTKEYQDLQHLDNEESDHHQLRKGPPPPQPLLQRLCSGPRLLLLSLGLSLLLLVVVCVIGSQNSQLQEELRGLRETFSNFTASTEAQVKGLSTQGGNVGRKMKSLESQLEKQQKDLSEDHSSLLLHVKQFVSDLRSLSCQMAALQGNGSERTCCPVNWVEHERSCYWFSRSGKAWADADNYCRLEDAHLVVVTSWEEQKFVQHHIGPVNTWMGLHDQNGPWKWVDGTDYETGFKNWRPEQPDDWYGHGLGGGEDCAHFTDDGRWNDDVCQRPYRWVCETELDKASQEPPLL
Question: With B1 as the binder, how does the Kd (Spike protein RBD) read?
Answer: 269 nM

Question: What about the Kd (Spike protein NTD) of the same binder?
Answer: 179 nM
